The series is described as follows: yeast display, Sf9 membrane polyspecificity reagent, FACS + sequencing; frameworks hold sequencing errors. The method, boiled down:
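Galactose induction of a Saccharomyces cerevisiae BJ5465 synthetic nanobody display library ran 36–48 hours. The cells were then stained for 1 hour at 4 °C with 10% biotinylated, detergent-solubilized Sf9 membrane reagent, pulled down on streptavidin microbeads and FACS-sorted into low and high (top ~1%) gates on expression and reagent-binding fluorescence. Labels for polyreactivity follow the gate of origin.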
Consider “QVQLVESGGGLVQAGGSLRLSCAASGSTFFRYDMGWYRQAPGKERELVADINYNGGSTYYADSVKGRFTISRDNAKNTVYLQMNSLKPEDTAVYYCAAAYRVRGRTYDSWGQGTQVTVSS”, for which the “polyreactivity (PSR sort gate)” value was “high polyreactivity”.

For the sequence “QVQLVESGGGLVQAGGSLRLSCAASGSTFFSNAMGRYRQAPGKERELVAAISWSGGSTYYADSVKGRFTISRDNAKNTVYLKLNSLKPEDTAVYYCGADYYGYWYDFEGDHWGQGTQVTVSS”, the “polyreactivity (PSR sort gate)” value is reported as “low polyreactivity”.

For “QVQLVESGGGLVQAGGSLRLSCAASGSTFFSYDMGWYRQAPGKERELVATISTSVGRTYYADSVKGRFTISRDNAKNTVYLLMNSLKPEDTAVYYCNSDSLGYLYNYYWPAYDHWGQGTQVTVSS”, the “polyreactivity (PSR sort gate)” value is given as “low polyreactivity”.

Take “QVQLVESGGGLVQAGGSLRLSCAASGSTFFTYTMGWYRQAPGKERELVATITTSGGSTYYADSVKGRFTISRDNAKNTVYLQMNSLKPEDTAVYYCAADWDPGYYVQYGYDYWGQGTQVTVSS”: the “polyreactivity (PSR sort gate)” value is listed as “low polyreactivity”.

Regarding “QVQLVESGGGLVQAGGSLRLSCAASGSTFFVNAMGWYRQAPGKERELVAAISTSGGRTYYADSVKGRFTISRDNAKNTVYLQMNSLKPEDTAVYYCAAYLRSPKGYYYWGQGTQVTVSS”, the “polyreactivity (PSR sort gate)” value is listed as “high polyreactivity”.

As for “QVQLVESGGGLVQAGGSLRLSCAASGSTFFVYAMGWYRQPPGKERELVADINWSSGITYYADSVKGRFTISRDNAKNNVYLQMNSLKREDTAVYYCKKDERYVTWSYFPNRYNYWGQGTQVTVSS”, the “polyreactivity (PSR sort gate)” value was “low polyreactivity”.

Consider “QVQLVESGGGLVQAGGSLRLSCAASGSTFFYYAMGWYRQAPGKERELVAAISGNGGSTYYADSVKGRFTISRDNAKNTVYLQMNSLKPEDPAVYYCAAVSSWDEYYYWGQGTQVTVSS”, for which the “polyreactivity (PSR sort gate)” value is “high polyreactivity”.

Consider “QVQLVESGGGLVQAGGSLRLSCAASGSTFGANAMGWYRQAPGKEREFVAAISRSGVRTYYADSVKGRFTISRDNAKNTVYVQMNSLKPEDSAVYYCAADGYWLTYTRYDYWGQGTQVTVSS”, for which the “polyreactivity (PSR sort gate)” value is reported as “low polyreactivity”.

Consider “QVQLVESGGGLVQAGGSLRLSCAASGSTFGANAMGWYRQAPGKERELVAVITWNDGSTYYADSVKGRFTISRDNAKNTVYLQMNSLKPEDTAVYYCATDPTSGRFYYWGQGTQVTVSS”, for which the “polyreactivity (PSR sort gate)” value was “high polyreactivity”.

“QVQLVESGGGLVQAGGSLRLSCAASGSTFGAYAMGWYRQAPGKEREFVAGISVRGGSTYYADSVKGRFTISRDNAKNTVYLQMNSLKPEDTAVYYCAARRVDTRFHVRYRYYYWGQGTQVTVSS”: the “polyreactivity (PSR sort gate)” value is on record as “high polyreactivity”.

For “QVQLVESGGGLVQAGGSLRLSCAASGSTFGAYDMGWYRQAPGKERELVAVISSRDGSTYYADSVKGRFTISRDNAKNTVYLQMNSLKPEDTAVYYCAADYPVPYNGGDGSWGQGTQVTVSS”, the “polyreactivity (PSR sort gate)” value is recorded as “low polyreactivity”.

As to “QVQLVESGGGLVQAGGSLRLSCAASGSTFGAYVMGWYRQAPGTERELVAVISSGGSTKYADSVKGRFTISRDNAKNTVYLQMNSLKPEDTAVYYCSARRASRHRYYPFDYWGQGTQVTVSS”, the “polyreactivity (PSR sort gate)” value is given as “high polyreactivity”.

“QVQLVESGGGLVQAGGSLRLSCAASGSTFGDNAMGWYRQAPGKERELVATITSGGNTNYADSVKGRFTISRDNAKNTVYLQMNSLKPEDTAGYYCNTDFRPAGTTGTTTARYEYWGQGTQVTLSS”: the “polyreactivity (PSR sort gate)” value is given as “low polyreactivity”.

With “QVQLVESGGGLVQAGGSLRLSCAASGSTFGDYAMGGYRQAPGKERELVAAISFSDGSTYYADSVKGRFTISRDNAKNTVYLQMNSLKPEDTAVYYCAKDAYWGYRWYTYDYWGQGTQVTVSS”, the “polyreactivity (PSR sort gate)” value was “low polyreactivity”.

Take “QVQLVESGGGLVQAGGSLRLSCAASGSTFGDYAMGGYRQAPGKERELVAANDQNGGSTYYADSVKGRITISRDNAKNTVYLQMNSLIPEDTAVYYCAAESIYDWYDYGGQGTQVTVSS”: the “polyreactivity (PSR sort gate)” value is recorded as “low polyreactivity”.

Consider “QVQLVESGGGLVQAGGSLRLSCAASGSTFGDYAMGWYRQAPGKREFVAAISFSGGNTYYADSVKGRFTISRDNAKNTVYLQMNSLKPEDTAVYYCNASSYPWEYYYLYYGYDYWGQGTQVTVSS”, for which the “polyreactivity (PSR sort gate)” value is “low polyreactivity”.

On to “QVQLVESGGGLVQAGGSLRLSCAASGSTFGEYAMGWSRQAPGKERELVATITSAGSTYYADSVKGRITFSRDNAKYTVYLQMNSLKPEDTAVYYCAVDPISQGHMDYWVQGTQVTVSS”, for which the “polyreactivity (PSR sort gate)” value is “low polyreactivity”.

Consider “QVQLVESGGGLVQAGGSLRLSCAASGSTFGEYAMGWYRQAPGKERELVAVITSDDNTYYADSVKGRFTISRDNAKNTVYLQMNSLKPEDTAVYYCAARGYVLARSQQWRREYYWGQGTQVTVSS”, for which the “polyreactivity (PSR sort gate)” value is given as “high polyreactivity”.

Consider “QVQLVESGGGLVQAGGSLRLSCAASGSTFGFNALGWYRQAPGKERELVAAITFSGGTTYYADSVKGRFTISRDNAKNTVYLQMNSLKPEDTAVYYCNADVKRDRVWGGDYWGQGTQVTVSS”, for which the “polyreactivity (PSR sort gate)” value is “low polyreactivity”.

Turning to “QVQLVESGGGLVQAGGSLRLSCAASGSTFGFNAMGWYRQAPGKERELVAAINSGSTTYADSVKGRFTISRDNAKNTVYLQMNSLKPEDTAVYYCAARYRYRYGYYYWGQGTQVTVSS”, the “polyreactivity (PSR sort gate)” value is listed as “high polyreactivity”.

Consider “QVQLVESGGGLVQAGGSLRLSCAASGSTFGFYAMGWYRQAPGKEREFVAAITWSGGRTNYADSVKGRFTISRDNAKNTVYLQMNSLKPEDTAVYYCAAEGFVTWYRQGQVYYWGQGTQVTVSS”, for which the “polyreactivity (PSR sort gate)” value is listed as “high polyreactivity”.

Turning to “QVQLVESGGGLVQAGGSLRLSCAASGSTFGFYMGWYRQAPGKERELVAAIDSSGGITYADSVKGRFTISRDNAKNTVYLQMNSLKPEDTAVYYCNTSYPIAPEDDYWGQGTQVTVSS”, the “polyreactivity (PSR sort gate)” value was “low polyreactivity”.

Consider “QVQLVESGGGLVQAGGSLRLSCAASGSTFGGNAMGWYRQAPGKERELVAAISSSGGSTYYADSVKGRFTISRDNAKITVYLQMNSLKPEDTAVYYCAALYHWTYDYWGQGTQVTVSS”, for which the “polyreactivity (PSR sort gate)” value is given as “low polyreactivity”.

Take “QVQLVESGGGLVQAGGSLRLSCAASGSTFGGNAMGWYRQAPGKERELVAAISSSGGSTYYADSVKGRFTISRDNAKNTVYLQMNSLKPEDTAVYYCAALYHWTYDYWGQGTQVTVSS”: the “polyreactivity (PSR sort gate)” value is recorded as “low polyreactivity”.

Consider “QVQLVESGGGLVQAGGSLRLSCAASGSTFGGNAMGWYRQAPGKERELVAGITSSGTSTYYADSVKGRFTISRDNAKNTVYLQMNSLKPEDTAVYYCATDEADESYGFELFDYWGQGTQVTVSS”, for which the “polyreactivity (PSR sort gate)” value was “low polyreactivity”.

On to “QVQLVESGGGLVQAGGSLRLSCAASGSTFGGNDMGWYRQAPGKERELVAAISSGTSTNYADSVKGRFTISRDNAKNTVYLQMNSLKPEDTAVYYCAAVYWVLWQGSTYGYWGQGTQVTVSS”, for which the “polyreactivity (PSR sort gate)” value is listed as “low polyreactivity”.

For “QVQLVESGGGLVQAGGSLRLSCAASGSTFGGYAMGWYRQAPGKERELVAAISFDGGSTYADSVKGRFTISRDNAKNTVYLQMNSLKPEDTAVYYCAVKFWLVIQFDYCGQGTQVTVSS”, the “polyreactivity (PSR sort gate)” value is listed as “low polyreactivity”.

Regarding “QVQLVESGGGLVQAGGSLRLSCAASGSTFGGYAMGWYRQAPGKERELVAAISRRGVSTYYADSVKGRFTISRDNAKNTVYLQMNSLKPEDTAVYYFNKKYFYSRHGSWGQGSQVTVSS”, the “polyreactivity (PSR sort gate)” value is reported as “high polyreactivity”.

In the case of “QVQLVESGGGLVQAGGSLRLSCAASGSTFGGYAMGWYRQAPRKERELVAAISQSGTRTFYADSVKGRFSISRDNAKNTVYLQMKSLKPEDSAVYYCAAVRSYRRALLTLDYWGLGTQVTVSS”, the “polyreactivity (PSR sort gate)” value is given as “high polyreactivity”.

“QVQLVESGGGLVQAGGSLRLSCAASGSTFGGYAMGWYRQEPGKERELVAAISSRGARTYYADSVKGRFTISRDNAKKTVYLQMNSLKPEDTAVYYCAARGPLDRYGYWGQGTQVTVSS”: the “polyreactivity (PSR sort gate)” value is “high polyreactivity”.

For the sequence “QVQLVESGGGLVQAGGSLRLSCAASGSTFGGYPMGRYRQAPGKERELGAAITWSGSSTTYADSVKGRFTISRDNAKKTVYLQMNSLKPEETAVYYCAAEAQDSTYPQYDYWGQGTLVTVSS”, the “polyreactivity (PSR sort gate)” value was “low polyreactivity”.

Regarding “QVQLVESGGGLVQAGGSLRLSCAASGSTFGGYTMGWYRQAPGKERELVAAISRRGGSTYYADSVKGRFTISRDNAKNTVYLQMNSLKPEDTAVYYCAALYVYRPRTPYGYWGQGTQVTVSS”, the “polyreactivity (PSR sort gate)” value is on record as “high polyreactivity”.

With “QVQLVESGGGLVQAGGSLRLSCAASGSTFGGYVMGWYRQAPGKERELVAAISGNGASTTYADSVKGRFTISRDNAKNTVYLQMNSLKPEDTAVYYCDALYRKAHSDYDYWGQGTQVTVSS”, the “polyreactivity (PSR sort gate)” value is “low polyreactivity”.

Regarding “QVQLVESGGGLVQAGGSLRLSCAASGSTFGHYAMGWSRQAPGKERELVAAISWSGASTYYADSVKGRFTISRDNAKNTVYLQMNSLKPEDTAVYYCATVGPWPGEYDYWGQGTQVTVSS”, the “polyreactivity (PSR sort gate)” value is recorded as “low polyreactivity”.

On to “QVQLVESGGGLVQAGGSLRLSCAASGSTFGHYAMGWSRQAPGKERELVAVISRSGARTYYADSVKGRFTISRDNAKNTVYLQMNSLKPEDTAVYYCATTYATNYDYWGQGTQVTVSS”, for which the “polyreactivity (PSR sort gate)” value is reported as “high polyreactivity”.

As to “QVQLVESGGGLVQAGGSLRLSCAASGSTFGHYAMGWYRQAPGKERELVAAITRRGGSTYYADSVKGRFTISRDNAKNTVYLQMNSLKPEDTAVYYCATDKHYVYYSSHMGYWGQGTQVTVSS”, the “polyreactivity (PSR sort gate)” value is given as “high polyreactivity”.

As for “QVQLVESGGGLVQAGGSLRLSCAASGSTFGHYAMRSYRQAPGKERQLVAGITDTDNHELRRLCEGRFTISRDNAKNTVYLQMNSLKPEDTAVYDCDAGSNAVFYDYGYWGQGTQVTVSS”, the “polyreactivity (PSR sort gate)” value is on record as “low polyreactivity”.

On to “QVQLVESGGGLVQAGGSLRLSCAASGSTFGHYVMGWYRQAPGKERELVAVISSSGGRTYYADSVKGRFTISRDNAKNTVYLQMNSLKPEDTAVYYCAAGSISTPGRGVDKPDPYDYWGQGTQVTVSS”, for which the “polyreactivity (PSR sort gate)” value is given as “low polyreactivity”.

Regarding “QVQLVESGGGLVQAGGSLRLSCAASGSTFGINAMGWYRQAPGKERDLVAAISSRGGSTYYADSVKGRFTISRDNAKNTVYLLMNSLKPEDTAVYYCAAEFAVSFYWSWLGQDYYYWGQGTQVTVSS”, the “polyreactivity (PSR sort gate)” value is reported as “high polyreactivity”.

Take “QVQLVESGGGLVQAGGSLRLSCAASGSTFGINAMGWYRQAPGKERELVARISTGVRTYYADSVKGRFTISRDNAKNTVYLQMNSLKPEDTAVYYCAAVYYRGVDRAILSYRYYYWGQGTQVTVSS”: the “polyreactivity (PSR sort gate)” value is “high polyreactivity”.
